The assay deals with ectodomain of CD147 (CD147^ECT, residues 22-205), wild type (human) (UniProt P35613).

Consider “ectodomain of CD147 (CD147^ECT, residues 22-205), wild type (from UniProt P35613-2 22-205) (domain or fragment)”, for which the MMP-2 production of fibroblasts co-cultured with K7721-WT cells (full-length WT CD147 on cells) treated with different concentrations of Cu2+ up to 30 uM, gelatin zymography amounted to 2.2 fold.

For the origin of these results see paper PMC5584238.
